In a protein production outcome set (Wang et al. 2014):

experiment: label from the status in PepcDB records
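Also: failed if final PepcDB status was selected cloned or expressed and not failed if soluble or beyond.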

Sequence	protein production
GKFGFNDAVGHPKTLKGAAYGRFANSFNLANNKISMDPDGNWMNKIYNEAELAEMDGLNYNWLDEAWSGAFTMNHSVNVSGGSEKATYFAGASYYTQGANLGKQDYNRWNFRAGVDIKLTSDLKFSATIAGNQQETTSSFTKGLSNLNGYGGTKPGESGDYLVLAHMPNYLPWEITLDDGNTYYTSPLLNSYSSAGNATSGNKMSTWNYFAMENNDGSYSTNDNFSYDANFSVTYAVPFIKGLSFKGSYALKRSASDSEQAFMPFTLAYLKASDALTPGNRFYSDHPSVSDYQLKEFTGSTRVVYSDQMAKNEQLNFYVNYEGKFGKHSIAAMAAVEKMQAYMHSKRMLFNNPDPDGYLGTSPSAGAMDTGNSITYKYKQGSLSYLGRVSYNYADKYLFQFLFRSDASTKFAPANYWGFFPGVSVGWVASEEEFMKKLLPSWFEYMKVRFSWGRTGKDNIKAWGWKQLYSLDPSRGYGFGSNGGILQTGIKPGATPNPDAHWDNTDKFNLGFDLRFLNNRLSATVDVYYDINSDILNQNIGGIIGTPIFAGGALTEVNFGRIDAFGSEFSLNWRDKIDQVKYNIGVNFGFNGNRVREWPQSAPSYIQENSVREGASTIFPTYGYKVWRGTSSGDGILRNSDDIENYWNYLSANAEAAGTSPEYLGVKDASQLKPGMLAYQDLGGVLNEDGTQSGPDGRIAKTQDYAKLNKSGKTYGFTTKLGAEWKGISFNMMIATSWGGYRQIDVNKITTSSGDMLWTPDSFWEDMFDERNNTTGKYPNLGLDNRISGSVIAPSDFWSISTFRCYIRNLSIGYTLPKAWLSPLKIQSAKLSLTGNNLW	failed
GKGKNIIVLHLESFQQFLIDYKLKEGDKEYEVTPFINSLYHSNATLAFPNFFHQVKAGKTSDAETMMENSLFGLNSGSFMVNYGGENTQFATPSILAQKGGYTSAVFHGNVGTFWNRNNAYKQWGYNYFFDSSYFSKQNSKNSFQYGLNDKYMFKDSIKYLEQMQQPFYTKFITVSNHYPYTSLKGESSEEGFPLAKTDDETINGYFATANYLDAALKSFFDYLKATGLYDNSIFVLYGDHYGISNSRNSSLAPLLGKDSETWSEYDNAMLQRVPYMIHIPGYTNGSIKETFGGEIDALPTLLHILGIDTSQFVQLGQDLLSPQNSQIVAQRTSGTYMTPEYTNYSGRLYNTQTGLEIT	failed
GKLFEPYEHMVIDIPSEYQGNVTQLMAARKGQMLSMDNISDEWVRMEYKVPARGLISFRTMFMTETRGTGIANSYSEGLDEWAGEIKGRATGSLVADRSGQITAYALQQLADRGNFFVEPGTE	failed
GKVSIPSIVYDIVRKNGGNKILLVGNGMLASEIAPYFSYPQYKVTVAGRNIDHVRAFAEKYEYEYVLINDIDSLIKNNDVIITATSSKTPIVEERSLMPGKLFIDLGNPPNIERGNNVITLDEIYEISKKNEMLREEKINQ	not failed
GLGGFTRTRNKGKSNVIDMIQKYIESKGMPIENWDITVGYCTNLEEAEKYRDDVEAQLGVKLLERREDFKTRISIISGCHTGPYALGIACIPKYTTIRL	not failed
GLINTHAHVGMSASKGLFDDVDLDSFLKKTFEYDSDRTSTGIFNSAKLGMYEMIGNGITAFVDLYYSEDIIAKAAEEIGIRAFLSWVTLDKELTTQIGDPVENAENFIRNHVGNKYVVPSVGVQGIYVANDDTFRRAMDLAEKYGTILHMHLSETRKEVYDAVKKLGERPIEHLHNIGILNKRVLAAHCVWATYHEVRLLSKDGVNVSWNSISNFKLGTGGIPPIPEMMRENVNVTIGTDSNGSNNSLDMFQAMKFSAISVKNYRWDASLMKAQEILDMATRNAARALQLNAG	failed
GMEGLVMNTRRALFADWRVREAMLLAFDFDLINRTLTGGAEPRIASYFSNSALGMEAGAPATGRERALLEPFAADLLPGTLDGYALPATHGASNRGNLRKAARLLSEAGWRIEDGMLEGPGGTPFAFEILLPQGADAMIAASIIYRQALTRLGISARITTVDPAQFKQRVDNQDFDMTSFLRSLTLSPGNEQLLYWSAEDKDLPGSRNLMGMESPAAEAVIRHMLATDDAEEFQASVRALDRVLTAGRYVIPMWYSR	failed
GMTTRVLALDALVPIVAADNPVPRVSTPDLARALSGEISNWKELGGPDMPLVLHALARDISLEAALEARLGRPIAAEITHPDLASLAAAVARDPYALAITGQTARGAARVLPLTDSCGFPLVPSPLAVKSED	failed
GNPKLKDLYIRPNIVTKRMTGSLEAHSNGFRYISVRGDKVDILYNNIKSAFFQPCDGEMIILLHFHLKYAIMFGKKKHVDVQFYTEVGEITTDLG	failed
GQYALTNGDPLNGHCYLSGYISLLLRAEPYPTSRYGSQCMQPNNIMGIENICELAARLLFSAVEWARNIPFFPDLQITDQVSLLRLTWSELFVLNAAQCSMPLHVAPLLAAAGLHASPMSADRVVAFMDHIRIFQEQVEKLKALHVDSAEYSCLKAIVLFTSDACGLSDAAHIESLQEKSQCALEEYVRSQYPNQPSRFGKLLLRLPSLRTVSSSVIEQLFFVRLVGKTPIETLIRDMLLSGSSFNWPYMSIQCS	failed
GRAPRNGEKVLVEFVSANPTGPLHVGHARQAALGDAICRLYDASGWDVTREFYYNDAGNQIDNLAISVQARGRGIAPDAPDYPADGYKGDYIVEIARDFAARKSVQASDGQPVTATGDLDSLDDIRAFAVAYLRREQDLDLQAFGLAFDNYFLESSLYASGRVQETVDTLVAKGHTYEEGGALWLRTTELGTGDDKDRVMRKSEGGYTYFVPDVAYHKVKWERGFHHAVNIQGSDHHGTVARVRAGLQGLAGIPKDFPAYVLHKMVKVMRGGEEVKISKRAGSYVTMRDLIDWVGRDAVRYFLIQRRADTEFVFDIDLALSKSDENPVYYIQYAHARICTMIGNSGA	failed
GRLRTDAVRAFCTTIVEATAPYACAFKPNFAFFEALGPAGLTVLDQVVTTIPDDCLVLGDAKRGDIGHSARHYAASIYEELGLDACTVSPYLGRDSVMPFLEHEGTCTFVLARTSNDGAADLQEACTCDGTPLYRHVARRVQAWNADAPGGAGLVVGATAPAALQDLRSLCPSLPFLVPGVGAQGGDAAAVMDAAATDEGPVLVNSSRSILYASEGPNYANAAADAARALRDALNG	failed
GSGATSAAGKPQETFLDFNESPYGPSAKARAAMQRAAALCGRYDYDAQDALVGLFAKQNGIPAECVHAYCGSRQPLQYAVAAFTGKERGLVIADPSYDSVVGAAQAQGAKVAAVPLDAEAAHDIERMLAAAQRDAGLIYICNPNNPTGTLTPHERIVRAIERKPERSVVLVDEAYIHFSDAPSVVGLAVQRQDVLVLRTFSKLYGMAGARLGLAIGHPQLLARLERFGGHNVVPSPTAHAGLESLRDDDLVPRRKQQNAEVRERTIAWLRQQGFRCTASQSNCFMVDMRRPAELVIAELEKQRVHVGRPWASWPNWVRVTVGSEEEMQAFR	failed
GSPDPEIFRQRFRQFGYQDSPGPREAVSQLRELCRLWLRPETHTKEQILELVVLEQFVAILPKELQTWVRDHHPENGEEAVTVLEDLESELDD	not failed
GSSGSSGMDEDVLTTLKILIIGESGVGKSSLLLRFTDDTFDPELAATIGVDFKVKTISVDGNKAKLAIWDTAGQERFRTLTPSYYRGAQGVILVYDVTRRDTFVKLDNWLNELETYCTRNDIVNMLVGNKIDKENREVDRNEGLKFARKHSMLFIEASAKTCDGVQCAFEELVEKIIQTPGLWESENQNSGPSSG	not failed
GSSGSSGNWIDVRYDLEKIESLIQSIHIDTTLYTDSDFHPSCKVTAMNCFLLELQVILHEYSNMTLNETVRNVLYLANSTLSSNKNVAESGCKECEELEEKTFTEFLQSFIRIVQMFINTS	not failed
GVDRWPEYYPETGRDIWIDSVMRQEYLWYRDMPSPAAPDYFQKPEAFLKKAVASMDNGFSKIDSLLDEPIPSYGFDYTLYKVLDNDTAYNALISYVVPGSPAEEAGLQRGHWIMMMNGDYITKKVESELLQGSTRQLQIGVYKEVVGEDGEVTGGVVPIGETTMPASRSLVDKPVHRFEIIPWNGKKVGYLMYNEFKAGPTTDSQAYNDDLRRAFRDFQTGGVNEFVLDLRYNTGGSLDCAQLLCTMLAPADKMNQLLALLRYSDKRVEANQDLTFNPELIQSGANLNLSTVYVLTTNATRGAAEMVINCLNPYMKVVLIGTKTAGEYVATKPFVHPTDRFILNLVVCNVYNAEEKSDYATGFKPTYEYNEDSYLSTYLPFGNTNETLLNAALKIMSGITDK	not failed
GYAVSVRVGGKEHRHWERYDIDSDFLIPADSFDFVIGRLGPEAAIPDLSGESCEVVIDGQIVMTGIIGSQRHGKSKGSRELSLSGRDLAGFLVDCSAPQLNVKGMTVLDAAKKLAAPWPQIKAVVLKAENNPALGKIDIEPGETVWQALTHIANSVGLHPWLEPDGTLVVGGADYSSPPVATLCWSRTDSRCNIERMDIEWDTDNRFSEVTFLAQSHGRSGDSAKHDLKWVYKDPTMTLHRPKTVVVSDADNLAALQKQAKKQLADWRLEGFTLTITVGGHKTRDGVLWQPGLRVHVIDDEHGIDAVFFLMGRRFMLSRMDGTQTELRLKEDGIWTPDAYPK	not failed
HDVIFHIRAKGKNQKLLLSAHPSYSRVHITAQAYENPSEPPMFCMLLRKHIEGGFIEKIEQAGLDRIMIFHIKSRNEIGDETVRKLYVEIMGRHSNIILTDAAENVIIDGLKHLSPSMNSYRTVLPGQDYKLPPAQDKISPLEASEDDILRHLSFQEGRLDKQIVDHFSGVSPLFAKEAVHRAGLANKVTLPKALLALFAEVKEHRFIPNITTVNGKEYFYLLELTHLKGEARRFDSLSELLDRFYFGKAERDRVKQQAQDLERFVVNERKKNANKIKKLEKTLEYSENAKEFQLYGELLTANLYMLKKGD	failed
HGEQSYSIGILTDITMTKMYEVLQYKVLEALILERPLDEVMTMLCHEVERIAPEVTASILQSIGQNHLSHLAGPSLPPAYTAVISSVPISPIAGSCGTAAFRKEAVEVQDIATDPLWDNYRHLILPHGLLACWSTPIISSQGQLLGTFAFYYRQIRSPSDFHRQLVKLIANLCSLAMERELSRKQIQHLAFYDS	failed
HKEDKEDFAELSGIAVPAEITAEDGTMFKEALLFTHRGLSGPSVLQISSFWKAGQKVSINLVPNEDIALLLERSLEKHPNQSLKNTLAKVLPKRLVEVLIERKELMDKPLKQFNPKELASVVERLENWSIAPNGTEGYRTAEVTLGGVDTDHLSSKTMECKNIKGLYFIGEVMDVTGWLGGYNFQWCWSSGFVAGQWV	failed
HLGEVQSEVVRFAVRFPSDKEQSSLLIDADAPVYDFVRLRLLNGEPVSLDLTVMPVGLVPGLTKSHLEGSVFRYVQETLGLKLMGSYRVVRAMKPGELDKQHLHCEPTDPVLEVEQVIYLEDGTPLEYAHCHYRYDHGG	not failed
HPHIQLLKSNRELLVTHIRNTQCLVDNLLKNDYFSAEDAEIVCACPTQPDKVRKILDLVQSKGEEVSEFFLYLLQQLADAYVDLRPWLLEIGFS	not failed
HRMDAVEVTLFEKETRVAAHQTGHNSGVVHAGLYYLPGSLKARLCRRGVTLLQQYAENKGVAYEECGKVVVAHDSSEVARMDAIFDRAVANGVPGIRKVAGEEIPEIEPHARGVAAVHSPHTAIIDYVAVAEALAADITAAGGRVLLGREVVGLDSRTAETVVTTGQGSEVFDLVVTCAGLQSDRVALMSGEPRSPRVVPFFGDYFLLEPERSSLVKGLIYPVPDPRYPFLGVHLTKRIDGRIMLGPNAFLSF	failed
HVAGHHLAPTIIAADQHWLLVNWLEGDVVTHAQFIELSNNGQLAQLLTRLHHLPASGYRLDLRAQLIRYAGQIDTKRLSPSWLRLHQHFQRRSPPQPVKLAPLHMDIHPGNLLATPSGLKLIDWEYAADGDIALDIAALFRGNGWSAPQQQAFLQHYCLNEQGYPDIDRLSRQIQRWVPWVDYLMLMWFEVRWQQTGD	failed
HYIFPHARIKITRDSKDHTVSGNGLGIRIVGGKEIPGHSGEIGAYIAKILPGGSAEQTGKLMEGMQVLEWNGIPLTSKTYEEVQSIISQQSGEAEICVRLDLNM	not failed
